The RNAGym collection of RNA variant scans (doi:10.1073/pnas.2313332121)
Fewer inactive variants are shown than the library holds.

B1: TPR 5TU (parent)
chain: GGAUCUUCUCGAUCUAACAAAAAAGACAAAUCUGCCACAAAGCUUGAGAGCAUCUUCGGAUGCAGAGGCGGCAGCCUUCGGUGGCGCGAUAGCGCCAACGUUCUCAACUAUGACACGCAAAACGCGUGCUCCGUUGAAUGGAGUUUAUCAUG

Variants of: B1
Assay: polymerase ribozyme fitness, log enrichment relative to wild type (log ratio); higher = more active; in vitro selection for triplet polymerase activity
Summary of the method: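 Both subunits of a heterodimeric triplet polymerase ribozyme were given their own mutant library, built by PCR and transcribed. Each library was annealed with a biotinylated primer, the partner subunit and triplets, incubated frozen at −7 °C, and its extended constructs gel-excised, captured on streptavidin beads and amplified by RT-PCR, all in one round done in triplicate. Fitness is the logarithm of genotype enrichment relative to wild-type enrichment, with replicates averaged by inverse-variance weighting. That logarithm is base 2, and Illumina-sequenced genotypes needed ≥10 input reads and ≥1 read per output.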

Variant	polymerase ribozyme fitness (log ratio)
C10G C27A A39U C75A G92C A97U A121U	≤ -4.2
U31C A40C G94A	1.25
A52C A122G	-1.4
C10A A23C G25C G92A A113U	≤ -4.2
G74A U77G	≤ -4.2
C18A A20U C27G A30U U56G A64U G84U U102C G112U G124C	≤ -4.2
U13A C32G A37U A52G G94A G128A U146G	≤ -4.2
A37C C38G C85U	-1.28
G84A C131G	-3.02
A29U U53G G81A G88C	≤ -4.2
C51U A91G G100A A110U A121U	≤ -4.2
A60U C85G C96U C105U	≤ -4.2
C38U A73G G83U A91U A97U A110G	≤ -4.2
U55A G70A C123G	-3.3
A17U C18U C96G C125U	-1.1
C76U C85A G141C U148C	-3.74
G71U G92U G136A	-2.26
A47U G124A	0.304
A26U C118U	-0.616
A39C U55A C118U	-2.2
U6A U90G C95U U109G A137C	≤ -4.2
A39G U77A G143C	≤ -4.2
A21U A22G A60G C132G U144C	-4.13
G11U C93U A115G	-2.88

Variant	polymerase ribozyme fitness (log ratio)
U45C G70C A91G C99U G136C	≤ -4.2
A41C C85U C99G C132G U139A	≤ -4.2
A19C A24G C32U C38U G59A C85A G133U U145C	≤ -4.2
U55A A73G	-0.446
A28G G50C G81C C95G C96U A98C A113U G143U	≤ -4.2
C14A A16U G83A C93G C95U A98U C108G	≤ -4.2
A3C U90A	-4.17
G128U A142C	-3.6
C79G A122C G140A	≤ -4.2
C35A A49C U56C G71A C72U G92A A115C	-3.21
C85U U127C	-2.51
U53G C87U A113U C116A G140U	≤ -4.2
U90A A106C A121U	≤ -4.2
U44G U134C	-4.1
A24G C85G	≤ -4.2
A3G G83A G86U C118U	-3.29
U13C A16G C18A C35A C87U	≤ -4.2
A21U A41C G86A G100U A110C	≤ -4.2
A52C A60G	-0.764
A60G C93A A97C A110U C123U U130G G133A	≤ -4.2
A60U U61A A142C	-3.49
C54A C85U	-1.86
U44A G50C U53A C87A A106G A107U	≤ -4.2
U53G U77G C129A A147C	≤ -4.2

Variant	polymerase ribozyme fitness (log ratio)
A37C	0.064
C5A A17U G42A G83C U102A A119U G126U G141U	≤ -4.2
C5G U13C C18U G46U C108U A122G	≤ -4.2
A3G A73U A121U	-0.51
C18G G83A U145G U151G	≤ -4.2
U33G A52C G92C U139C	≤ -4.2
A41G C57G C76U G94A A110G C116G U139G	-4.11
C38U U53G C96G	-1.73
A23C C87G A91G C99A C103G	≤ -4.2
C35U C76G A89U A97G	≤ -4.2
A3U A73G G86U C129A A137G	≤ -4.2
G84U G94U	-2.37
U53A U78C U90G C96G	≤ -4.2
C87A A138C	≤ -4.2
A21U G141U	1.9
U4G U7G A20U C57U A91U C123U A150U	-3
G81A C93G	-3.86
G34C G58A U77A U82G G86A C105A U127A G141C	≤ -4.2
U9G A142G	≤ -4.2
A26C A41G C54U C75G G88A A107G	≤ -4.2
A47C C93A A106U U109G	≤ -4.2
A23C C95U	-4.12
G50C G83U	-3.77
C18G A37C C93A A115G	-4.01

Variant	polymerase ribozyme fitness (log ratio)
U61C A64G	≤ -4.2
A12G A41U C85U U101G C105A G140U G152U	-4.09
A37C A52U C96A	-2.87
C27U C75G U78A C85U U148G	≤ -4.2
C38U C87G	-3.75
A21C G59C C85U G100C U130A G136A U144G	≤ -4.2
A41C U56G C76A C118G U134C	-3.21
A20C A26C G128U U144G	≤ -4.2
U4G G11U A40U U55A A98U	-3.1
C18A U56A C85G C96A	-3.54
A16G C69U C85U C131G A142U	≤ -4.2
C75G C118U	-3.87
A23G C85A A98C	-3.17
U6G A22U C85A	-0.601
A20C A47C A60G C85A G140U	≤ -4.2
C76U A122G	-0.0921
U90G G94U A106U	≤ -4.2
U15C C36G	-3.28
A22C A28G C36A U55A C87A C118G	≤ -4.2
U56A C57U U61A C75A G88U A120U U139A G143C	≤ -4.2
A21U U56A G81U C85G A107U G141U U144G	≤ -4.2
A22G A29U U77C C85G C95U C103U C114G C125U	≤ -4.2
A28C U78G	≤ -4.2
C85U A89G	-2.67

Variant	polymerase ribozyme fitness (log ratio)
U4C C103A U139C	-3.94
G81C G141C	-0.0339
U101A A106C A147G	-3.14
U56C C96U	-0.496
G71C G84A A119U	-2.68
A28U A41U C57A G70C G88U A89U C95A	≤ -4.2
C5U A52U G67U C93U C96U A115C	≤ -4.2
A24U C63A	1.21
U33G A47C A52C U53A A73U C87G	≤ -4.2
A97G C99G	-0.579
A20U U55A C85A	-3.29
A49G G62U C63U C96A A122U	-3.19
U13G G83U C105U G117C U148A	≤ -4.2
U55A G58A A89C A120U U134C	0.161
U55A U78C C123G	-0.403
A29U G59A G83C C125U	≤ -4.2
A12U U56A C93U A147G	-1.6
A60G G67U C93U C99U C129U	≤ -4.2
A52U C116A	0.243
C54A U55A U56A C96A G141C	-4.08
C38G A40G A49G A60U C93A A121G	≤ -4.2
C118U U148A	-2.79
A73U G92U G141A U145A	-3.24
A20C A24U U44A G88A C93U	≤ -4.2

Variant	polymerase ribozyme fitness (log ratio)
C8G A29C G42C	≤ -4.2
A17U C57U G136A	0.435
G11U C57G A119U A121G C149U	-2.88
A37G G83U G84A A142G	≤ -4.2
A64G G67U G84U C103A G112C A115U U146C	≤ -4.2
C27A U45G G46A A60U C95G G124U	≤ -4.2
A39U U55G G88A U104A U135A U144C C149A	≤ -4.2
U78A	-3.62
G11A U15G A17C A20U U33C A64G C93G A110G A147U	≤ -4.2
U6C U61A A73C C85G	≤ -4.2
A23U U90C C93U U102G A119U G124A G133U U134C	≤ -4.2
C10G A28G U82G G94C C95A G140A	≤ -4.2
G124A U148C	-0.766
C10U C103G C132U	≤ -4.2
C75G G86C C87U	≤ -4.2
A29C U31G C87A U139G	≤ -4.2
G50C U61A G62U A142C	-2.79
C5G U6G C38U A41U A47U G86A A91C	≤ -4.2
A98U U101G C129U U139C	≤ -4.2
A40C A49C U56A A60C G84A G136A	≤ -4.2
C85A C123U	-1.2
U61G C69G U82A C95A A122U U148C	≤ -4.2
C8G A29G A60U U77A C93A C123U	≤ -4.2
C27A U55G A66U C72U U78G C79U A91C C105U	≤ -4.2

Variant	polymerase ribozyme fitness (log ratio)
C85A G88U C95G A97C	≤ -4.2
C35U U56A C57A A97U C123U U130C	-0.0554
C36U A64C G136A U145C A147C	≤ -4.2
C63U C85G U127A U139A U145C	≤ -4.2
A28C U78G C96G U148G	≤ -4.2
A17U G100U U134A U145G	≤ -4.2
U55G G58A C93A U109G	-3.3
C14G C18U U144C	-2.22
C8U A98U U135G U148C	≤ -4.2
U31G C93G G133U U134C	≤ -4.2
A52G C93G G141C	-3.74
C105U A119U G140A U146G	-3.72
A12G C14U G50A U53A C95U C99A C116U A150U	-4.15
U56A U61A C76G G84A C103G	≤ -4.2
A41U U55A A142G	-2.45
C5U C75A	-4.03
A41U G80C G88U C103A A107G	≤ -4.2
A26G U53A G88U G92U C118A A147G	≤ -4.2
U7A G83A A121G U145G U148G	≤ -4.2
A24G U53A U61A G84C C125U	≤ -4.2
C10U U44A U102G A119C A121G A137C G143A	≤ -4.2
A3U C51A G124C	-2.87
A150C	-2.71
